# Numbering of substitutions follows the chain as printed. Non-standard residues stand in square brackets, D forms with d. No end group written: not given here. *: point of attachment. Biotin = O=C1N[C@H]2[C@H](CS[C@H]2CCCCC(=O)*)N1; sY = N[C@@H](Cc1ccc(OS(=O)(=O)O)cc1)C(=O)O
# T1: Sulfotyr fibrinogen γ peptide (not fully specified; Y8 and Y12 sulfated (SO3); C-terminal biotin)
# T1 construct: also called Fibrinogen gamma peptide; human sulfotyrosinylated fibrinogen peptide
# T1 peptide: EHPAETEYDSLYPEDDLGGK
# T2: Recombinant human PSGL-1(ECD)-hFc1 (R&D Systems, Cat. 3345-PS) (human, UniProt Q14242 42-305)
# T2 construct: Bought; Gln42-Val295 counted on AAC50061; also called PSGL-1-Fc; PSGL-1-hFc1 chimera; not shown: human IgG1 Fc, Pro100-Lys330
# T2 sequence: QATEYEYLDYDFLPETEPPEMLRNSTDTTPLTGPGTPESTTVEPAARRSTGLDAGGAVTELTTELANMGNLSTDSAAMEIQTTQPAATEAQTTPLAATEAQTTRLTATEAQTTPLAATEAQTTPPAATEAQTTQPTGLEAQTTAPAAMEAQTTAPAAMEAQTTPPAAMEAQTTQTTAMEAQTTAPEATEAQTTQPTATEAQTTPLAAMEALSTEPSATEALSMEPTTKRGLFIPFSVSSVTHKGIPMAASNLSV
# T3: SulfoCCK biotin peptide (human)
# T3 construct: also called sulfotyrosine CCK peptide
# T3 peptide: SHRISDRD[sY]MGWMDFGGK(Biotin)
# T4: Human fibrinogen protein (ThermoFisher, RP-43142) (human, UniProt P02671 20-629; P02675 31-491; P02679 27-453, limits assumed, natural sulfotyrosines)
# T4 construct: mature; Native dimer with 3 pairs of non-identical chains; also called gamma-fibrinogen; γ fibrinogen protein
# T4 sequence (looked up) 1: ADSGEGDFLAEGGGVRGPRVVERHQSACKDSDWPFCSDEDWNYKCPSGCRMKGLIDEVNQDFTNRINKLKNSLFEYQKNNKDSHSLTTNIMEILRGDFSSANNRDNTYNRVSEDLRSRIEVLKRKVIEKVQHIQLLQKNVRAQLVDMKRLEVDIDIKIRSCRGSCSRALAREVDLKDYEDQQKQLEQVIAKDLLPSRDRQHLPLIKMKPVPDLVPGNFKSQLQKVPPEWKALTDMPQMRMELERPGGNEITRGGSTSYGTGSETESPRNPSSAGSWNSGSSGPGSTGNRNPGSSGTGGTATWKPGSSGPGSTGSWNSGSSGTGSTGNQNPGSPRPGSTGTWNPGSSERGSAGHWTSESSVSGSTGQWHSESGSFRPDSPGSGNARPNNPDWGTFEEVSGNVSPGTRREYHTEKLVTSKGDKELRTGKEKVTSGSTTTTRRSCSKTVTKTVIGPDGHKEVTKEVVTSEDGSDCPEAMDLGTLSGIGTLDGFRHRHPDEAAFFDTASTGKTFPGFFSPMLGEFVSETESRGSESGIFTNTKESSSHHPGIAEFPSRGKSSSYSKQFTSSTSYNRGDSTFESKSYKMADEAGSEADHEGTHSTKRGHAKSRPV
# T4 sequence (looked up) 2: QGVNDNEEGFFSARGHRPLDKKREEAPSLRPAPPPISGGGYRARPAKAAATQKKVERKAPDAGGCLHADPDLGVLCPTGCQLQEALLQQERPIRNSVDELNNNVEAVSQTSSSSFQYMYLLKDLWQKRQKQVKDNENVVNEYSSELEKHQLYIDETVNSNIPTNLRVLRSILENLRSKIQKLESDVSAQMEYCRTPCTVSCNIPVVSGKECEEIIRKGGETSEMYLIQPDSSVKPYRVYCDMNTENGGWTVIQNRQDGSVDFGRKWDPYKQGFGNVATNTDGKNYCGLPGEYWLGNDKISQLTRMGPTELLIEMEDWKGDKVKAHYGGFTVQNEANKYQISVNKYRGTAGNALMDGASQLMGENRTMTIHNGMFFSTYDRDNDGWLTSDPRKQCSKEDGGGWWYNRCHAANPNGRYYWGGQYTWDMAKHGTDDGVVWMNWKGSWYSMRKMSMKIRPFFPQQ
# T4 sequence (looked up) 3: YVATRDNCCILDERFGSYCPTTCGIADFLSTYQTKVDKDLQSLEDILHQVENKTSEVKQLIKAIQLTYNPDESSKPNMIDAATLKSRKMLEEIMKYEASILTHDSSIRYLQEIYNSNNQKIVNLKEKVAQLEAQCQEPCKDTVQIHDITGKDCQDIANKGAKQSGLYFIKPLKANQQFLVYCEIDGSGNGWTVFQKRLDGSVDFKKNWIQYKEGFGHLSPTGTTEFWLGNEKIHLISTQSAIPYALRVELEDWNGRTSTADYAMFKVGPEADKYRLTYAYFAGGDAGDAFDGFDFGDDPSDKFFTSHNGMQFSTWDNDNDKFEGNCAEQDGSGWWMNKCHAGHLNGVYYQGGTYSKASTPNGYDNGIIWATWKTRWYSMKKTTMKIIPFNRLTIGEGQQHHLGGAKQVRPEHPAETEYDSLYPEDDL
# T5: Sulfotyrosine D6 biotin peptide (human)
# T5 construct: also called D6 peptide
# T5 peptide: ENSSFY[sY][sY]D[sY]LDEVAFGGK(Biotin)
# T6: Sulfotyrosine CCR2b biotin peptide (human)
# T6 construct: also called CCR2b peptide
# T6 peptide: TTFFD[sY]D[sY]GAPSHGGK(Biotin)
# T7: SulfoTyr C4 peptide (not fully specified; Y4, Y7 and Y9 sulfated (SO3); C-terminal biotin)
# T7 construct: also called C4 alpha chain peptide; human sulfotyrosinylated C4 peptide
# T7 peptide: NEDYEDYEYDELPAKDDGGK
# T8: Scrambled Y42,52,63(SO3) PSGL-1(42-62) biotin peptide (sulfotyrosine at peptide positions 1, 11 and 22; C-terminal Lys-biotin)
# T8 peptide: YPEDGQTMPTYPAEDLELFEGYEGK
# T9: Biotin Y46,48,51(SO3) PSGL-1(42-62) peptide (human, sulfotyrosine at Y46, Y48 and Y51; C-terminal Lys-biotin)
# T9 construct: also called fully sulfated N-terminal PSGL-1 peptide
# T9 peptide: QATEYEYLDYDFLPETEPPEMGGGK
# T10: Biotin PSGL-1(42-62) peptide, unmodified (human, C-terminal Lys-biotin)
# T10 construct: Residues 42-62 followed by GGGK-biotin; also called WT; wild-type
# T10 peptide: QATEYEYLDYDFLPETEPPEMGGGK
# B1: 01A04 (antibody, IgG4, V domains shown)
# VH: EVQLVQSGAEVKKPGASVKVSCKASGYTFTSYYIHWVRQAPGQGLEWMGIIRPSGGSTSYAQKFQGRVTMTRDTSTSTVYMELSSLRSEDTAMYYCARVGVGSFDYWGQGTLVTVSS
# VL: DIQMTQSPSTLSASVGDRVTITCRASQSVSNWLAWYQQKPGKAPKLLIYKASSLESGVPSRFSGSGSGTEFTLTISSLQPDDFATYYCQWFRTFGPGTKVDIK
# B2: 03B03 (antibody, IgG4, V domains shown)
# VH: EVQLVQSGGGLVQPGGSLRLSCAATGFTVSRNYMTWVREAPGKGLEWVAGIYKSGTTSYTESVKGRFTISRDNSKNTLYLEMSRLRAEDTAVYYCAKSTSTWGQGTQVTVSS
# VL: DIVMTQSPLSLPVTLGQPASISCRASQSPGYSDGNTYLNWFQQRPGQSPRRLIYKVSNRDPGVPDRFSGSGSGTDFTLKISRVEAEDVGVYYCMQATHWPSFGQGTRLEIK
# B3: 03D01 (antibody, IgG4, V domains shown)
# VH: B2 VH with T60I
# VL: DVVMTQSPVSLPVTLGQPASISCRSSRNLLYSNGNTYLNWFHQRPGQSPRRLIYKVSNQDSGVPDRFSGSGSGTDFTLKISRVEAEDVGVYYCMQGTHWPTTFGQGTRLEIK
# B4: 08C10 (antibody, IgG4, V domains shown)
# VH: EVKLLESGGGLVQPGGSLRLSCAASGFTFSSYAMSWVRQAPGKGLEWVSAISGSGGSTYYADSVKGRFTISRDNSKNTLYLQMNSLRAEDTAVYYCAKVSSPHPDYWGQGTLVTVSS
# VL: LPVLTQPSSLSASPGASASLTCTLRSGLNVGTYRMYWYQQRPGSPPRYLLRYKSNSDKQQGSGVPSRFSGSKDASANAGILLISGLQSEDEADYYCLIWHNSAWVFGGGTKLTVL
# B5: 10B03 (antibody, IgG4, V domains shown)
# VH: EVKLLESGGDLVQPGGSLRLSCAASGLTFSNYAMSWVRQAPGKGLEWVSAISGSGDNTYYADSVKGRFTISRDNSKNTLYLQMNSLRADDTAVYFCAKRDSWGQGTLVTVSS
# VL: QAVLTQPPSASGTPGQRVTISCSGSTSNIGSRDVYWYQHLPGTAPKLVIYRNDQRPSGVPDRFSGSKSGTSASLAISGLRSEDDADYYCAVWDNSLRGRVFGGGTKLTVL
# Target: T11, Cynomolgus PSGL-1(ECD)-hFc1 (cynomolgus macaque)
# T11 construct: also called Cyno PSGL1-Fc; Cyno PSGL-1(ECD)-Fc
# Assay: ELISA, 20 nM mAb on plate cyno PSGL-1(ECD)-Fc
# Description: Antibody binding to plate-immobilized cyno PSGL-1(ECD) was determined either at one concentration (20 nM) or by generating full antibody binding curves (0.003-200 nM). A typical ELISA was performed by overnight coating at 4° C. with 3 ug/mL/25 ul per well of recombinant cyno PSGL-1(ECD) protein in PBS, pH 7.4, in high binding half-well plates (Corning Cat. #3690). […] Anti-PSGL-1 IgG in assay buffer (blocking buffer containing 0.05% tween 20) was added into test and control wells (20 nM/25 ul/well) and the plate incubated for 45 min at 37° C. […] The plate was incubated for 45 min at 37° C., and mAb bound to plate-immobilized target determined at A450 nm using HRP substrate (3,3′,5,5′-tetramethylbenzidine (TMB)). For each antibody, duplicate values were averaged and assay background subtracted.
row,Binder,A450nm
1,B1,1.81 A450 nm
2,B2,0.45 A450 nm
3,B3,0.71 A450 nm
4,B4,0.31 A450 nm
5,B5,0.68 A450 nm

# Target: T1, Sulfotyr fibrinogen γ peptide
# Assay: ELISA, 50 nM mAb
# Description: (§1) Recombinant PSGL-1-hFc1 chimera protein consisting of PSGL-1's extracellular domain (ECD) served as a positive control. […] Primary antibody was added (25 ul per well) in duplicate at 50 nM in assay buffer (blocking buffer containing 0.05% Tween®20) into test and control (just blocked) wells and the plate incubated for 45 min at 37° C.
row,Binder,binding normalized to PSGL-1
1,B1,0.16
2,B2,1.01
3,B3,1.17
4,B4,1.18
5,B5,1.18

# Target: T2, Recombinant human PSGL-1(ECD)-hFc1 (R&D …)
# Assay: ELISA, 50 nM mAb
# Description: as §1
row,Binder,A450nm
1,B4,2.3 A450nm
2,B5,2.18 A450nm

# Target: T3, SulfoCCK biotin peptide
# Assay: ELISA, 50 nM mAb
# Description: as §1
row,Binder,binding normalized to PSGL-1
1,B1,0.87
2,B2,0.98
3,B3,0.94
4,B4,1.02
5,B5,0.56

# Target: T4, Human fibrinogen protein (ThermoFisher, …)
# Assay: ELISA, 50 nM mAb
# Description: as §1
Binder,binding normalized to PSGL-1,binding result
B1,0.8,
B2,0.27,
B3,-0.2,no binding (tested: 50 nM)
B4,0.46,
B5,0.68,

# Target: T12, Human complement C4 protein (Millipore Sigma, Cat. 204886) (human, UniProt P0C0L4 20-675; P0C0L4 680-1446; P0C0L4 1454-1744, limits assumed, natural sulfotyrosines)
# T12 construct: mature
# Assay: ELISA, 50 nM mAb
# Description: as §1
# T12 sequence (P0C0L4 20-675 limits assumed, form in doubt, chain 1 of 3): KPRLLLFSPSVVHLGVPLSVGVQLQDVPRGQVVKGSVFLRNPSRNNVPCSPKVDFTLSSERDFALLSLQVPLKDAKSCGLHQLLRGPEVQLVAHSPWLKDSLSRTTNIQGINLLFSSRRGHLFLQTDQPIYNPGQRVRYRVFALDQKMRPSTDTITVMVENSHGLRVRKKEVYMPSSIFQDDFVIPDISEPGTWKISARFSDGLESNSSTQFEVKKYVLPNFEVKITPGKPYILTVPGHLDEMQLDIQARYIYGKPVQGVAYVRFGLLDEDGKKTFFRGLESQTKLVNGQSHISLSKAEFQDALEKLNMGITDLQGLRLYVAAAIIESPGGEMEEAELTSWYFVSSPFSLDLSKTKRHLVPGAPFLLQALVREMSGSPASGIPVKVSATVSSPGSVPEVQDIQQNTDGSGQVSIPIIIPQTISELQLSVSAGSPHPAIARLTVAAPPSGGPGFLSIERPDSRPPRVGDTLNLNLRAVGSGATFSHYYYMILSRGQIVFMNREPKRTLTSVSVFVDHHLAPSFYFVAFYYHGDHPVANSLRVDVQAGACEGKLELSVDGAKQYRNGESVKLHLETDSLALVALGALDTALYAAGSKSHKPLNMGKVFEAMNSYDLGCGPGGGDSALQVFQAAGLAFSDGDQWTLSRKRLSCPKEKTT
# T12 sequence (P0C0L4 680-1446 limits assumed, form in doubt, chain 2 of 3): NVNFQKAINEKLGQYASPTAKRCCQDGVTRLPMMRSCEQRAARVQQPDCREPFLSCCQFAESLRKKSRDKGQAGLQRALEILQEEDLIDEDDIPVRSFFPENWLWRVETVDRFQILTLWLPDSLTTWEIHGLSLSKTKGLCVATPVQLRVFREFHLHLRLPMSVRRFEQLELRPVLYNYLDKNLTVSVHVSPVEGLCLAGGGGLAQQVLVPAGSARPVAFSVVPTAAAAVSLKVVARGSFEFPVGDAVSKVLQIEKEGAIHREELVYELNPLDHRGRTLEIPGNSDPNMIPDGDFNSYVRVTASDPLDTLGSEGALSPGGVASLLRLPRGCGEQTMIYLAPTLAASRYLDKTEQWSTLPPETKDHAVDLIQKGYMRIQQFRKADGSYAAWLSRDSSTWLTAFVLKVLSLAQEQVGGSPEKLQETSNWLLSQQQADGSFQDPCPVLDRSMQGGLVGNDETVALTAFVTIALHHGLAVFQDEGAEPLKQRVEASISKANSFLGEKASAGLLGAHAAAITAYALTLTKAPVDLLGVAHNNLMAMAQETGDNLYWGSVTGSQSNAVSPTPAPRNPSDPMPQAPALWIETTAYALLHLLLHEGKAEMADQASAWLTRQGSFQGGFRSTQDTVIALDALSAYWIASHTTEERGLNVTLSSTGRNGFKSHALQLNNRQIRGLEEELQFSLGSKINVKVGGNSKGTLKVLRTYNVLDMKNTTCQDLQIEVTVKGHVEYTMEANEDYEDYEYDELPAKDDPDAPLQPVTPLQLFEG
# T12 sequence (P0C0L4 1454-1744 limits assumed, form in doubt, chain 3 of 3): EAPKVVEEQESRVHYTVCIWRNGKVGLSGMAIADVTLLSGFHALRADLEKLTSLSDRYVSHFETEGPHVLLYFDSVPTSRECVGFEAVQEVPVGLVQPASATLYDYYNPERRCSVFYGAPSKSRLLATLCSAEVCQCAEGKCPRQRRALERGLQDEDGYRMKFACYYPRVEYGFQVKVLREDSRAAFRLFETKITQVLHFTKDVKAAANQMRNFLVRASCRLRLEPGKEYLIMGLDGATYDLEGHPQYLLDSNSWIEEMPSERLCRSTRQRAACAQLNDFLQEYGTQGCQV
row,Binder,binding normalized to PSGL-1
1,B1,0.87
2,B2,0.94
3,B3,1.07
4,B4,1.22
5,B5,1.16

# Target: T5, Sulfotyrosine D6 biotin peptide
# Assay: ELISA, 50 nM mAb
# Description: as §1
row,Binder,binding normalized to PSGL-1
1,B1,0.82

# Target: T6, Sulfotyrosine CCR2b biotin peptide
# Assay: ELISA, 50 nM mAb
# Description: as §1
row,Binder,binding normalized to PSGL-1
1,B1,0.08
2,B2,0.89
3,B3,0.94
4,B4,1.27
5,B5,0.98

# Target: T7, SulfoTyr C4 peptide
# Assay: ELISA, 50 nM mAb
# Description: as §1
row,Binder,binding normalized to PSGL-1
1,B1,0.24
2,B2,1
3,B3,1.13
4,B4,1.14
5,B5,1.08

# Target: T8, Scrambled Y42,52,63(SO3) PSGL-1(42-62) …
# Assay: ELISA, immobilized biotin peptide
# Description: (§2) A typical ELISA was performed by coating high binding half-well plates (Corning Cat. #3690) with 3 ug/mL/25 ul per well of biotinylated N-terminal PSGL-1 peptides, which incorporated residues 42 to 62 of the protein, in PBS, pH 7.4, overnight at 4° C. The peptide was unmodified or contained sulfated tyrosine at all 3 tyrosine positions (46, 48, and 51) or at one position (tyr51) (Table 7).
# (§3) PSGL-1 protein or peptide served as a positive control. […] […] […] For each antibody, duplicate values were averaged and average assay background was subtracted.
Binder,"A450nm, 20 nM mAb",binding result
B2,0.04 A450nm,no binding (tested: 20 nM)
B4,,no binding (tested: 20 nM)

# Target: T9, Biotin Y46,48,51(SO3) PSGL-1(42-62) …
# Assay: ELISA, immobilized biotin peptide
# Description: as §2, §3
Binder,"A450nm, 20 nM mAb",EC50
B1,2.73 A450nm,
B2,2.5 A450nm,
B3,2.67 A450nm,
B4,2.57 A450nm,0.33 nM
B5,2.68 A450nm,

# Target: T10, Biotin PSGL-1(42-62) peptide, unmodified
# Assay: ELISA, immobilized biotin peptide
# Description: as §2, §3
Binder,"A450nm, 20 nM mAb",EC50
B1,2.45 A450nm,
B2,2.21 A450nm,
B3,2.52 A450nm,
B4,,~500 nM
